Source: the supplement of paper PMC9112550, “Optimization of the antimicrobial peptide Bac7 by deep mutational scanning” (BMC Biology, 2022)

System: Escherichia coli TOP10
Test: shrunken log2 fold change of peptide-encoding DNA abundance (4.5 h post-induction vs induction); higher = less antimicrobial activity (less host growth inhibition)
Details: time post-induction: 4.5 h; library: site-saturation at positions 5, 18, 19, 20
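Further: peptides expressed intracellularly from a pBAD plasmid library in pooled LB shake-flask culture, induced with 0.3% L-arabinose, DNA abundance read by NGS, three biological replicates, DESeq2 with apeglm shrinkage.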

Sequence	shrunken log2 fold change
RRIRLRPPRLPRPRPRPAYMPRP	-0.275
RRIRNRPPRLPRPRPRPKVHPRP	0.0346
RRIRMRPPRLPRPRPRPEAAPRP	3.45
RRIRDRPPRLPRPRPRPAWIPRP	0.0906
RRIRWRPPRLPRPRPRPMFSPRP	-0.0364
RRIRIRPPRLPRPRPRPINGPRP	-0.383
RRIRCRPPRLPRPRPRPLQCPRP	-0.279
RRIRHRPPRLPRPRPRPYIRPRP	-0.0464
RRIRWRPPRLPRPRPRPVKWPRP	-0.0659
RRIRPRPPRLPRPRPRPLPMPRP	0.53
RRIRYRPPRLPRPRPRPYYMPRP	-1.06
RRIRVRPPRLPRPRPRPCWKPRP	-0.00912
RRIRRRPPRLPRPRPRPMVAPRP	0.363
RRIRKRPPRLPRPRPRPHSHPRP	0.179
RRIRLRPPRLPRPRPRPECQPRP	-0.00577
RRIRRRPPRLPRPRPRPKTKPRP	-0.146
RRIRARPPRLPRPRPRPCCFPRP	0.274
RRIRWRPPRLPRPRPRPDTSPRP	0.0558
RRIRGRPPRLPRPRPRPMLEPRP	0.778
RRIRRRPPRLPRPRPRPCKVPRP	-0.0103
RRIRCRPPRLPRPRPRPIKTPRP	-0.0653
RRIRMRPPRLPRPRPRPCNCPRP	-0.0499
RRIRNRPPRLPRPRPRPAMDPRP	0.166
RRIRQRPPRLPRPRPRPRMYPRP	-0.2
RRIRFRPPRLPRPRPRPACVPRP	-0.0826

Sequence	shrunken log2 fold change
RRIRYRPPRLPRPRPRPLGPPRP	0.157
RRIRMRPPRLPRPRPRPSPFPRP	0.124
RRIRFRPPRLPRPRPRPQPDPRP	0.254
RRIRRRPPRLPRPRPRPSRIPRP	0.157
RRIRTRPPRLPRPRPRPQYFPRP	-0.395
RRIRGRPPRLPRPRPRPNWHPRP	0.27
RRIRWRPPRLPRPRPRPMRLPRP	0.905
RRIRCRPPRLPRPRPRPGNLPRP	-0.167
RRIRNRPPRLPRPRPRPQMLPRP	-0.409
RRIRPRPPRLPRPRPRPRKNPRP	0.296
RRIRWRPPRLPRPRPRPPTNPRP	0.433
RRIRSRPPRLPRPRPRPYPKPRP	-0.119
RRIRQRPPRLPRPRPRPPKDPRP	0.0238
RRIRVRPPRLPRPRPRPPSCPRP	0.187
RRIRWRPPRLPRPRPRPGMYPRP	0.0165
RRIRMRPPRLPRPRPRPVVDPRP	0.0138
RRIRDRPPRLPRPRPRPVWDPRP	0.107
RRIRFRPPRLPRPRPRPQKDPRP	-0.376
RRIRYRPPRLPRPRPRPTWQPRP	-0.255
RRIRSRPPRLPRPRPRPIKMPRP	-0.47
RRIRGRPPRLPRPRPRPLDLPRP	0.717
RRIRWRPPRLPRPRPRPQWMPRP	0.0674
RRIRARPPRLPRPRPRPKVVPRP	-0.0348
RRIRARPPRLPRPRPRPTLMPRP	0.768
RRIRLRPPRLPRPRPRPSASPRP	0.0218

Sequence	shrunken log2 fold change
RRIRARPPRLPRPRPRPEKDPRP	0.366
RRIRKRPPRLPRPRPRPYVVPRP	-0.226
RRIRFRPPRLPRPRPRPSKYPRP	-0.868
RRIRGRPPRLPRPRPRPHSRPRP	0.26
RRIRKRPPRLPRPRPRPRSAPRP	0.884
RRIRWRPPRLPRPRPRPSSVPRP	0.278
RRIRLRPPRLPRPRPRPGSIPRP	-0.301
RRIRRRPPRLPRPRPRPILQPRP	1.83
RRIRLRPPRLPRPRPRPVLMPRP	-0.04
RRIRERPPRLPRPRPRPFQRPRP	-0.0653
RRIRRRPPRLPRPRPRPMHSPRP	0.36
RRIRSRPPRLPRPRPRPMLLPRP	3.53
RRIRQRPPRLPRPRPRPTVSPRP	-0.14
RRIRDRPPRLPRPRPRPSAIPRP	0.0484
RRIRWRPPRLPRPRPRPNHSPRP	-0.409
RRIRFRPPRLPRPRPRPERAPRP	0.611
RRIRCRPPRLPRPRPRPHNQPRP	-0.565
RRIRYRPPRLPRPRPRPMGIPRP	0.00902
RRIRIRPPRLPRPRPRPQHQPRP	-0.344
RRIRHRPPRLPRPRPRPETAPRP	0.346
RRIRCRPPRLPRPRPRPSFMPRP	-0.688
RRIRHRPPRLPRPRPRPTFCPRP	-0.186
RRIRFRPPRLPRPRPRPPCKPRP	0.352
RRIRQRPPRLPRPRPRPFYLPRP	-0.437
RRIRPRPPRLPRPRPRPHACPRP	0.00839

Sequence	shrunken log2 fold change
RRIRKRPPRLPRPRPRPLKQPRP	0.146
RRIRTRPPRLPRPRPRPHRTPRP	-0.615
RRIRTRPPRLPRPRPRPKIDPRP	-0.0576
RRIRYRPPRLPRPRPRPRDLPRP	-0.372
RRIRARPPRLPRPRPRPGEHPRP	0.351
RRIRLRPPRLPRPRPRPKPGPRP	0.396
RRIRDRPPRLPRPRPRPQMLPRP	0.269
RRIRYRPPRLPRPRPRPLINPRP	-0.279
RRIRLRPPRLPRPRPRPDFGPRP	0.153
RRIRKRPPRLPRPRPRPPWTPRP	0.527
RRIRRRPPRLPRPRPRPNAQPRP	0.287
RRIRTRPPRLPRPRPRPARGPRP	0.407
RRIRIRPPRLPRPRPRPCRGPRP	0.0305
RRIRKRPPRLPRPRPRPTRQPRP	0.724
RRIRKRPPRLPRPRPRPLSEPRP	0.251
RRIRERPPRLPRPRPRPMRSPRP	0.119
RRIRPRPPRLPRPRPRPWSLPRP	-0.0559
RRIRARPPRLPRPRPRPNVAPRP	0.477
RRIRRRPPRLPRPRPRPGWNPRP	0.257
RRIRFRPPRLPRPRPRPWQSPRP	0.146
RRIRDRPPRLPRPRPRPRIIPRP	-0.00686
RRIRMRPPRLPRPRPRPSCDPRP	0.444
RRIRNRPPRLPRPRPRPKRDPRP	0.411
RRIRWRPPRLPRPRPRPVPYPRP	-0.638
RRIRKRPPRLPRPRPRPRQWPRP	0.263

Sequence	shrunken log2 fold change
RRIRFRPPRLPRPRPRPQGRPRP	0.19
RRIRGRPPRLPRPRPRPDWPPRP	0.566
RRIRPRPPRLPRPRPRPQNQPRP	-0.407
RRIRPRPPRLPRPRPRPCANPRP	0.0366
RRIRCRPPRLPRPRPRPCKGPRP	0.035
RRIRMRPPRLPRPRPRPSGWPRP	0.934
RRIRLRPPRLPRPRPRPCWTPRP	-0.252
RRIRPRPPRLPRPRPRPLTMPRP	-0.186
RRIRPRPPRLPRPRPRPIKAPRP	-0.00863
RRIRERPPRLPRPRPRPLHVPRP	-0.268
RRIRARPPRLPRPRPRPKDVPRP	0.0479
RRIRQRPPRLPRPRPRPRAIPRP	0.109
RRIRDRPPRLPRPRPRPRVKPRP	0.103
RRIRPRPPRLPRPRPRPIDYPRP	-0.13
RRIRSRPPRLPRPRPRPVQMPRP	0.0426
RRIRQRPPRLPRPRPRPWEKPRP	-0.0123
RRIRQRPPRLPRPRPRPVICPRP	-0.0945
RRIRTRPPRLPRPRPRPCKFPRP	-0.298
RRIRERPPRLPRPRPRPTTMPRP	-0.364
RRIRWRPPRLPRPRPRPAIGPRP	0.0325
RRIRCRPPRLPRPRPRPSAGPRP	0.194
RRIRIRPPRLPRPRPRPIPDPRP	-1.08
RRIRDRPPRLPRPRPRPLQTPRP	0.135
RRIRDRPPRLPRPRPRPSEMPRP	-0.0135
RRIRERPPRLPRPRPRPPYLPRP	-0.0371
